Values quoted from earlier work in paper PMC5429092.

Target: PP1 (Homo sapiens) (UniProt P62136)
Experiment: ITC

Chain of UniProt P62136 (P62136 2-330): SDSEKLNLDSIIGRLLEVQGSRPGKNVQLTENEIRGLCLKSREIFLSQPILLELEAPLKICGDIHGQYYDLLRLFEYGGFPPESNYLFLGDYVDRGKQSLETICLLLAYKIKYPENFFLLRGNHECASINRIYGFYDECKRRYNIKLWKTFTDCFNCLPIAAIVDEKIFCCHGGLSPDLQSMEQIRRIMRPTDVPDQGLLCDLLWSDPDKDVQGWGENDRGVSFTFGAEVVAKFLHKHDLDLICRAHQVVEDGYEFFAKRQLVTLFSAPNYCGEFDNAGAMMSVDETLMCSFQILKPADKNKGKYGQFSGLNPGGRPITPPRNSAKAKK

Kd: 62 nM
Substance: PPP1R15A (from UniProt O75807)
